Conditions: Escherichia coli (strain K12), pH 8, 25 °C, Urea, CD, whole UniProt chain shown
[1] = Sodium phosphate 50 mM, reversible: Yes
[2] = sodium phosphate buffer, transition: 2, reversible: yes

B1: Lipid A palmitoyltransferase PagP wild type, P37001 (protein)
chain: MNVSKYVAIFSFVFIQLISVGKVFANADEWMTTFRENIAQTWQQPEHYDLYIPAITWHARFAYDKEKTDRYNERPWGGGFGLSRWDEKGNWHGLYAMAFKDSWNKWEPIAGYGWESTWRPLADENFHLGLGFTAGVTARDNWNYIPLPVLLPLASVGYGPVTFQMTYIPGTYNNGNVYFAWMRFQF
denaturant m value [1]: 1.64 kcal/mol/M
denaturant midpoint (higher = more stable) [1]: 8.77 M
unfolding free energy [1]: 14.4 kcal/mol
denaturant midpoint (higher = more stable) [2]: 8.77 M
unfolding free energy [2]: 14.4 kcal/mol
